Measurements published in the Human Domainome abundance scans (Beltran et al. 2025).
± gives the uncertainty stated by the source.

Assay: abundance fitness (aPCA) (normalised: wild type 0, dead -1); higher = more abundant; growth selection in yeast, the domain comes from the species named
Conditions: Homo sapiens

Point of comparison: “NEDD4-like E3 ubiquitin-protein ligase WWP2 R476H, O00308”, abundance fitness -0.4 ± 0.081. Against it:
- NEDD4-like E3 ubiquitin-protein ligase WWP2 R468D, O00308 — within error, -0.479 ± 0.06
- NEDD4-like E3 ubiquitin-protein ligase WWP2 R468E, O00308 — higher, -0.14 ± 0.039
- NEDD4-like E3 ubiquitin-protein ligase WWP2 R468G, O00308 — higher, -0.2 ± 0.033
- NEDD4-like E3 ubiquitin-protein ligase WWP2 R468H, O00308 — higher, -0.015 ± 0.08
- NEDD4-like E3 ubiquitin-protein ligase WWP2 R468I, O00308 — within error, -0.51 ± 0.12
- NEDD4-like E3 ubiquitin-protein ligase WWP2 R468K, O00308 — higher, -0.071 ± 0.071
- NEDD4-like E3 ubiquitin-protein ligase WWP2 R468L, O00308 — higher, -0.191 ± 0.047
- NEDD4-like E3 ubiquitin-protein ligase WWP2 R468M, O00308 — higher, -0.11 ± 0.033
- NEDD4-like E3 ubiquitin-protein ligase WWP2 R468N, O00308 — higher, -0.208 ± 0.08
- NEDD4-like E3 ubiquitin-protein ligase WWP2 R468Q, O00308 — higher, -0.111 ± 0.066
- NEDD4-like E3 ubiquitin-protein ligase WWP2 R468S, O00308 — higher, -0.212 ± 0.053
- NEDD4-like E3 ubiquitin-protein ligase WWP2 R468T, O00308 — within error, -0.336 ± 0.069
- NEDD4-like E3 ubiquitin-protein ligase WWP2 R468V, O00308 — within error, -0.352 ± 0.036
- NEDD4-like E3 ubiquitin-protein ligase WWP2 R468W, O00308 — within error, -0.336 ± 0.066
- NEDD4-like E3 ubiquitin-protein ligase WWP2 R468Y, O00308 — higher, -0.251 ± 0.064
- NEDD4-like E3 ubiquitin-protein ligase WWP2 R476A, O00308 — within error, -0.291 ± 0.058
- NEDD4-like E3 ubiquitin-protein ligase WWP2 R476C, O00308 — higher, -0.198 ± 0.061
- NEDD4-like E3 ubiquitin-protein ligase WWP2 R476D, O00308 — within error, -0.297 ± 0.047
- NEDD4-like E3 ubiquitin-protein ligase WWP2 R476F, O00308 — within error, -0.505 ± 0.084
- NEDD4-like E3 ubiquitin-protein ligase WWP2 R476G, O00308 — higher, -0.206 ± 0.051
- NEDD4-like E3 ubiquitin-protein ligase WWP2 R476K, O00308 — higher, -0.248 ± 0.069
- NEDD4-like E3 ubiquitin-protein ligase WWP2 R476L, O00308 — higher, -0.202 ± 0.037
- NEDD4-like E3 ubiquitin-protein ligase WWP2 R476M, O00308 — within error, -0.324 ± 0.048
- NEDD4-like E3 ubiquitin-protein ligase WWP2 R476N, O00308 — higher, -0.186 ± 0.049
- NEDD4-like E3 ubiquitin-protein ligase WWP2 R476P, O00308 — higher, -0.188 ± 0.07
- NEDD4-like E3 ubiquitin-protein ligase WWP2 R476Q, O00308 — within error, -0.406 ± 0.074
- NEDD4-like E3 ubiquitin-protein ligase WWP2 R476S, O00308 — within error, -0.271 ± 0.052
- NEDD4-like E3 ubiquitin-protein ligase WWP2 R476T, O00308 — higher, -0.075 ± 0.049
- NEDD4-like E3 ubiquitin-protein ligase WWP2 R476W, O00308 — within error, -0.294 ± 0.045
- NEDD4-like E3 ubiquitin-protein ligase WWP2 R476Y, O00308 — within error, -0.369 ± 0.05
- NEDD4-like E3 ubiquitin-protein ligase WWP2 R493A, O00308 — within error, -0.237 ± 0.12
- NEDD4-like E3 ubiquitin-protein ligase WWP2 R493C, O00308 — within error, -0.399 ± 0.12
- NEDD4-like E3 ubiquitin-protein ligase WWP2 R493E, O00308 — higher, -0.058 ± 0.063
- NEDD4-like E3 ubiquitin-protein ligase WWP2 R493F, O00308 — higher, 0.299 ± 0.12
- NEDD4-like E3 ubiquitin-protein ligase WWP2 R493G, O00308 — higher, 0.041 ± 0.064
- NEDD4-like E3 ubiquitin-protein ligase WWP2 R493H, O00308 — higher, 0.065 ± 0.087
- NEDD4-like E3 ubiquitin-protein ligase WWP2 R493I, O00308 — within error, -0.502 ± 0.18
- NEDD4-like E3 ubiquitin-protein ligase WWP2 R493K, O00308 — higher, -0.022 ± 0.089
- NEDD4-like E3 ubiquitin-protein ligase WWP2 R493L, O00308 — higher, -0.088 ± 0.1
- NEDD4-like E3 ubiquitin-protein ligase WWP2 R493M, O00308 — higher, -0.083 ± 0.082
- NEDD4-like E3 ubiquitin-protein ligase WWP2 R493N, O00308 — within error, -0.666 ± 0.28
- NEDD4-like E3 ubiquitin-protein ligase WWP2 R493P, O00308 — higher, -0.006 ± 0.063
- NEDD4-like E3 ubiquitin-protein ligase WWP2 R493Q, O00308 — higher, 0.132 ± 0.11
- NEDD4-like E3 ubiquitin-protein ligase WWP2 R493S, O00308 — higher, -0.201 ± 0.079
- NEDD4-like E3 ubiquitin-protein ligase WWP2 R493T, O00308 — higher, 0.002 ± 0.056
- NEDD4-like E3 ubiquitin-protein ligase WWP2 R493V, O00308 — higher, -0.069 ± 0.037
- NEDD4-like E3 ubiquitin-protein ligase WWP2 R493W, O00308 — higher, -0.013 ± 0.071
- NEDD4-like E3 ubiquitin-protein ligase WWP2 R493Y, O00308 — higher, -0.055 ± 0.055
- NEDD4-like E3 ubiquitin-protein ligase WWP2 S456A, O00308 — higher, -0.066 ± 0.048
- NEDD4-like E3 ubiquitin-protein ligase WWP2 S456C, O00308 — higher, -0.01 ± 0.063
- NEDD4-like E3 ubiquitin-protein ligase WWP2 S456D, O00308 — higher, 0.085 ± 0.071
- NEDD4-like E3 ubiquitin-protein ligase WWP2 S456E, O00308 — higher, 0.017 ± 0.035
- NEDD4-like E3 ubiquitin-protein ligase WWP2 S456F, O00308 — higher, -0.24 ± 0.063
- NEDD4-like E3 ubiquitin-protein ligase WWP2 S456G, O00308 — higher, -0.043 ± 0.046
- NEDD4-like E3 ubiquitin-protein ligase WWP2 S456H, O00308 — higher, 0.346 ± 0.096
- NEDD4-like E3 ubiquitin-protein ligase WWP2 S456K, O00308 — higher, -0.039 ± 0.054
- NEDD4-like E3 ubiquitin-protein ligase WWP2 S456L, O00308 — higher, -0.169 ± 0.05
- NEDD4-like E3 ubiquitin-protein ligase WWP2 S456M, O00308 — higher, -0.06 ± 0.065
- NEDD4-like E3 ubiquitin-protein ligase WWP2 S456N, O00308 — higher, 0.04 ± 0.074
- NEDD4-like E3 ubiquitin-protein ligase WWP2 S456P, O00308 — higher, -0.062 ± 0.062
- NEDD4-like E3 ubiquitin-protein ligase WWP2 S456Q, O00308 — higher, -0.11 ± 0.066
- NEDD4-like E3 ubiquitin-protein ligase WWP2 S456R, O00308 — higher, -0.142 ± 0.041
- NEDD4-like E3 ubiquitin-protein ligase WWP2 S456T, O00308 — higher, -0.04 ± 0.06
